The record followed here is article PMC7530023.

The test concerns the target unmodified (unphosphorylated) recombinant tau, human 1N4R isoform (human). Description: thioflavin S fluorescence aggregation assay.

On to “unmodified (unphosphorylated) recombinant tau, human 1N4R isoform (natural protein)”, for which the net increase of ThS fluorescence (9 μM tau) (units of ThS fluorescence) amounted to 41 and the net increase of ThS fluorescence (18 μM tau) (units of ThS fluorescence) was determined as 54.
